*1 amine or outer side, *2 acyl side, *3 side chain or, on linkers, in order; H or OH if unused. Bridges are numbered along the chain shown (N, C = ends). Where no end group is shown, it is not given here. The star is where a group is joined. X2 = (S)‑4‑Carboxy‑4‑(19-carboxynonadecanoylamino)butyryl, O=C(O)CCCCCCCCCCCCCCCCCCC(=O)N[C@@H](CCC(=O)*)C(=O)O; C20 diacid = O=C(O)CCCCCCCCCCCCCCCCCCC(=O)*; γGlu = O=C(O)[C@H](CCC(=O)[*:2])N[*:1]; AEEA = NCCOCCOCC(=O)O
T1: Amylin 3(a) receptor (human calcitonin receptor (CTa) with RAMP-3) (human, UniProt P30988 25-474; O60896 24-148, limits assumed)
T1 sequence (looked up) 1: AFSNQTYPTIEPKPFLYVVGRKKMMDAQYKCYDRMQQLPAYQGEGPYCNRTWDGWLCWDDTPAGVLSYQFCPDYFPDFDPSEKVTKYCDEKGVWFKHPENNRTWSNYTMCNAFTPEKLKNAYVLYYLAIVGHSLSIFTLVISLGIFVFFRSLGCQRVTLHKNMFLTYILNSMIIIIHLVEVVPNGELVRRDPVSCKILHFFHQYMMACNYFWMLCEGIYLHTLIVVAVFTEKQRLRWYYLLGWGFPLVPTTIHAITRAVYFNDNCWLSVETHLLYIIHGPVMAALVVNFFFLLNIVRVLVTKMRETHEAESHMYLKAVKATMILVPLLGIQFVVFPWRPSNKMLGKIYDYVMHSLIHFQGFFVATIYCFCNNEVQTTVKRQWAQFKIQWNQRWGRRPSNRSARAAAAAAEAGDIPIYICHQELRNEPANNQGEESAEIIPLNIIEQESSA
T1 sequence (looked up) 2: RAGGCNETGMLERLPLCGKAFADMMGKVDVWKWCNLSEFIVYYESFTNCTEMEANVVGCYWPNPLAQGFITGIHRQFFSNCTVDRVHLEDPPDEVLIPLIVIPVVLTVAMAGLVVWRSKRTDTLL

B1: N-alpha-[(S)-4-Carboxy-4-(19-carboxynonadecanoylamino)butyryl]-[His17]-pramlintide (2-37) (peptide)
peptide: {C20 diacid-γGlu}-CNTATCATQRLANFLHHSSNNFGPILPPTNVGSNTY-NH2
modifications: disulfide 1-6
B2: N-alpha-[2-(2-{2-[4-(S)-Carboxy-4-(19-carboxynonadecanoylamino)butyrylamino]ethoxy}ethoxy)acetyl]-His-His-[Arg1,Arg17]-pramlintide (peptide)
peptide: {C20 diacid-γGlu-AEEA}-HHRCNTATCATQRLANFLRHSSNNFGPILPPTNVGSNTY-NH2
modifications: disulfide 4-9
SMILES: CC[C@H](C)[C@H](NC(=O)[C@@H]1CCCN1C(=O)CNC(=O)[C@H](Cc1ccccc1)NC(=O)[C@H](CC(N)=O)NC(=O)[C@H](CC(N)=O)NC(=O)[C@H](CO)NC(=O)[C@H](CO)NC(=O)[C@H](Cc1c[nH]cn1)NC(=O)[C@H](CCCNC(=N)N)NC(=O)[C@H](CC(C)C)NC(=O)[C@H](Cc1ccccc1)NC(=O)[C@H](CC(N)=O)NC(=O)[C@H](C)NC(=O)[C@H](CC(C)C)NC(=O)[C@H](CCCNC(=N)N)NC(=O)[C@H](CCC(N)=O)NC(=O)[C@@H](NC(=O)[C@H](C)NC(=O)[C@@H]1CSSC[C@H](NC(=O)[C@H](CCCNC(=N)N)NC(=O)[C@H](Cc2c[nH]cn2)NC(=O)[C@H](Cc2c[nH]cn2)NC(=O)COCCOCCNC(=O)CC[C@H](NC(=O)CCCCCCCCCCCCCCCCCCC(=O)O)C(=O)O)C(=O)N[C@@H](CC(N)=O)C(=O)N[C@@H]([C@@H](C)O)C(=O)N[C@@H](C)C(=O)N[C@@H]([C@@H](C)O)C(=O)N1)[C@@H](C)O)C(=O)N[C@@H](CC(C)C)C(=O)N1CCC[C@H]1C(=O)N1CCC[C@H]1C(=O)N[C@H](C(=O)N[C@@H](CC(N)=O)C(=O)N[C@H](C(=O)NCC(=O)N[C@@H](CO)C(=O)N[C@@H](CC(N)=O)C(=O)N[C@H](C(=O)N[C@@H](Cc1ccc(O)cc1)C(N)=O)[C@@H](C)O)C(C)C)[C@@H](C)O
B3: N-alpha-[2-(2-{2-[4-(S)-Carboxy-4-(19-carboxynonadecanoylamino)butyrylamino]ethoxy}ethoxy)acetyl]-His-His-[Arg1,His17]-pramlintide (peptide)
peptide: {C20 diacid-γGlu-AEEA}-HHRCNTATCATQRLANFLHHSSNNFGPILPPTNVGSNTY-NH2
modifications: disulfide 4-9
SMILES: CC[C@H](C)[C@H](NC(=O)[C@@H]1CCCN1C(=O)CNC(=O)[C@H](Cc1ccccc1)NC(=O)[C@H](CC(N)=O)NC(=O)[C@H](CC(N)=O)NC(=O)[C@H](CO)NC(=O)[C@H](CO)NC(=O)[C@H](Cc1c[nH]cn1)NC(=O)[C@H](Cc1c[nH]cn1)NC(=O)[C@H](CC(C)C)NC(=O)[C@H](Cc1ccccc1)NC(=O)[C@H](CC(N)=O)NC(=O)[C@H](C)NC(=O)[C@H](CC(C)C)NC(=O)[C@H](CCCNC(=N)N)NC(=O)[C@H](CCC(N)=O)NC(=O)[C@@H](NC(=O)[C@H](C)NC(=O)[C@@H]1CSSC[C@H](NC(=O)[C@H](CCCNC(=N)N)NC(=O)[C@H](Cc2c[nH]cn2)NC(=O)[C@H](Cc2c[nH]cn2)NC(=O)COCCOCCNC(=O)CC[C@H](NC(=O)CCCCCCCCCCCCCCCCCCC(=O)O)C(=O)O)C(=O)N[C@@H](CC(N)=O)C(=O)N[C@@H]([C@@H](C)O)C(=O)N[C@@H](C)C(=O)N[C@@H]([C@@H](C)O)C(=O)N1)[C@@H](C)O)C(=O)N[C@@H](CC(C)C)C(=O)N1CCC[C@H]1C(=O)N1CCC[C@H]1C(=O)N[C@H](C(=O)N[C@@H](CC(N)=O)C(=O)N[C@H](C(=O)NCC(=O)N[C@@H](CO)C(=O)N[C@@H](CC(N)=O)C(=O)N[C@H](C(=O)N[C@@H](Cc1ccc(O)cc1)C(N)=O)[C@@H](C)O)C(C)C)[C@@H](C)O
B4: N-alpha-[(S)-4-Carboxy-4-(19-carboxynonadecanoylamino)butyryl]-Glu-Arg-[Glu1,Asp14,His17,Gln21,Ala25,Pro26,Ser28,Ser29]-pramlintide (peptide)
peptide: X2-ERECNTATCATQRLADFLHHSSQNFGAPLSSTNVGSNTY-NH2
modifications: disulfide 4-9
SMILES: CC(C)C[C@H](NC(=O)[C@H](CCCNC(=N)N)NC(=O)[C@H](CCC(N)=O)NC(=O)[C@@H](NC(=O)[C@H](C)NC(=O)[C@@H]1CSSC[C@H](NC(=O)[C@H](CCC(=O)O)NC(=O)[C@H](CCCNC(=N)N)NC(=O)[C@H](CCC(=O)O)NC(=O)CC[C@H](NC(=O)CCCCCCCCCCCCCCCCCCC(=O)O)C(=O)O)C(=O)N[C@@H](CC(N)=O)C(=O)N[C@@H]([C@@H](C)O)C(=O)N[C@@H](C)C(=O)N[C@@H]([C@@H](C)O)C(=O)N1)[C@@H](C)O)C(=O)N[C@@H](C)C(=O)N[C@@H](CC(=O)O)C(=O)N[C@@H](Cc1ccccc1)C(=O)N[C@@H](CC(C)C)C(=O)N[C@@H](Cc1c[nH]cn1)C(=O)N[C@@H](Cc1c[nH]cn1)C(=O)N[C@@H](CO)C(=O)N[C@@H](CO)C(=O)N[C@@H](CCC(N)=O)C(=O)N[C@@H](CC(N)=O)C(=O)N[C@@H](Cc1ccccc1)C(=O)NCC(=O)N[C@@H](C)C(=O)N1CCC[C@H]1C(=O)N[C@@H](CC(C)C)C(=O)N[C@@H](CO)C(=O)N[C@@H](CO)C(=O)N[C@H](C(=O)N[C@@H](CC(N)=O)C(=O)N[C@H](C(=O)NCC(=O)N[C@@H](CO)C(=O)N[C@@H](CC(N)=O)C(=O)N[C@H](C(=O)N[C@@H](Cc1ccc(O)cc1)C(N)=O)[C@@H](C)O)C(C)C)[C@@H](C)O
B5: N-alpha-[3-(2-{2-[2-(2-{2-[2-(2-{2-[(S)-4-Carboxy-4-(17-carboxyheptadecanoylamino) … (peptide)
peptide: RCNTATCATQRLANFLHHSSNNFGPILPPTNVGSNTY-NH2
modifications: disulfide 2-7; not fully specified (N-terminus); printed as N-alpha-[3-(2-{2-[2-(2-{2-[2-(2-{2-[(S)-4-Carboxy-4-(17-carboxyheptadecanoylamino) butyrylamino]ethoxy}ethoxy)ethoxy]ethoxy}ethoxy)ethoxy]ethoxy}ethoxy)propionylamino][Arg1,His17]-pramlintide
B6: N-alpha-[(S)-4-Carboxy-4-(19-carboxynonadecanoylamino)butyryl]-Glu-[Glu1,Arg17]-pramlintide (peptide)
peptide: EECNTATCATQRLANFLRHSSNNFGPILPPTNVGSNTY-NH2
modifications: disulfide 3-8; not fully specified (N-terminus); printed as N-alpha-[(S)-4-Carboxy-4-(19-carboxynonadecanoylamino)butyryl]-Glu-[Glu1,Arg17]-pramlintide
B7: N-alpha-[(S)-4-Carboxy-4-(19-carboxynonadecanoylamino)butyryl]-[Glu 1,His17]-pramlintide (peptide)
peptide: {C20 diacid-γGlu}-ECNTATCATQRLANFLHHSSNNFGPILPPTNVGSNTY-NH2
modifications: disulfide 2-7
SMILES: CC[C@H](C)[C@H](NC(=O)[C@@H]1CCCN1C(=O)CNC(=O)[C@H](Cc1ccccc1)NC(=O)[C@H](CC(N)=O)NC(=O)[C@H](CC(N)=O)NC(=O)[C@H](CO)NC(=O)[C@H](CO)NC(=O)[C@H](Cc1c[nH]cn1)NC(=O)[C@H](Cc1c[nH]cn1)NC(=O)[C@H](CC(C)C)NC(=O)[C@H](Cc1ccccc1)NC(=O)[C@H](CC(N)=O)NC(=O)[C@H](C)NC(=O)[C@H](CC(C)C)NC(=O)[C@H](CCCNC(=N)N)NC(=O)[C@H](CCC(N)=O)NC(=O)[C@@H](NC(=O)[C@H](C)NC(=O)[C@@H]1CSSC[C@H](NC(=O)[C@H](CCC(=O)O)NC(=O)CC[C@H](NC(=O)CCCCCCCCCCCCCCCCCCC(=O)O)C(=O)O)C(=O)N[C@@H](CC(N)=O)C(=O)N[C@@H]([C@@H](C)O)C(=O)N[C@@H](C)C(=O)N[C@@H]([C@@H](C)O)C(=O)N1)[C@@H](C)O)C(=O)N[C@@H](CC(C)C)C(=O)N1CCC[C@H]1C(=O)N1CCC[C@H]1C(=O)N[C@H](C(=O)N[C@@H](CC(N)=O)C(=O)N[C@H](C(=O)NCC(=O)N[C@@H](CO)C(=O)N[C@@H](CC(N)=O)C(=O)N[C@H](C(=O)N[C@@H](Cc1ccc(O)cc1)C(N)=O)[C@@H](C)O)C(C)C)[C@@H](C)O
B8: N-alpha-[(S)-4-Carboxy-4-(19-carboxynonadecanoylamino)butyryl]-Glu-[Glu1,His17]-pramlintide (peptide)
peptide: EECNTATCATQRLANFLHHSSNNFGPILPPTNVGSNTY-NH2
modifications: disulfide 3-8; not fully specified (N-terminus); printed as N-alpha-[(S)-4-Carboxy-4-(19-carboxynonadecanoylamino)butyryl]-Glu-[Glu1,His17]-pramlintide
B9: N-alpha-[(S)-4-Carboxy-4-(19-carboxynonadecanoylamino)butyryl]-[His17,Asp31]-pramlintide (2-37) (peptide)
peptide: {C20 diacid-γGlu}-CNTATCATQRLANFLHHSSNNFGPILPPTDVGSNTY-NH2
modifications: disulfide 1-6
SMILES: CC[C@H](C)[C@H](NC(=O)[C@@H]1CCCN1C(=O)CNC(=O)[C@H](Cc1ccccc1)NC(=O)[C@H](CC(N)=O)NC(=O)[C@H](CC(N)=O)NC(=O)[C@H](CO)NC(=O)[C@H](CO)NC(=O)[C@H](Cc1c[nH]cn1)NC(=O)[C@H](Cc1c[nH]cn1)NC(=O)[C@H](CC(C)C)NC(=O)[C@H](Cc1ccccc1)NC(=O)[C@H](CC(N)=O)NC(=O)[C@H](C)NC(=O)[C@H](CC(C)C)NC(=O)[C@H](CCCNC(=N)N)NC(=O)[C@H](CCC(N)=O)NC(=O)[C@@H](NC(=O)[C@H](C)NC(=O)[C@@H]1CSSC[C@H](NC(=O)CC[C@H](NC(=O)CCCCCCCCCCCCCCCCCCC(=O)O)C(=O)O)C(=O)N[C@@H](CC(N)=O)C(=O)N[C@@H]([C@@H](C)O)C(=O)N[C@@H](C)C(=O)N[C@@H]([C@@H](C)O)C(=O)N1)[C@@H](C)O)C(=O)N[C@@H](CC(C)C)C(=O)N1CCC[C@H]1C(=O)N1CCC[C@H]1C(=O)N[C@H](C(=O)N[C@@H](CC(=O)O)C(=O)N[C@H](C(=O)NCC(=O)N[C@@H](CO)C(=O)N[C@@H](CC(N)=O)C(=O)N[C@H](C(=O)N[C@@H](Cc1ccc(O)cc1)C(N)=O)[C@@H](C)O)C(C)C)[C@@H](C)O

What follows are binders tested against T1, Amylin 3(a) receptor (human calcitonin …) (assay: cell-based or functional assay).

Row | Potency Luciferase | Binder
1 | 0.1 nM | B1
2 | 0.3 nM | B2
3 | 0.09 nM | B3
4 | 0.06 nM | B4
5 | 0.08 nM | B5
6 | 0.3 nM | B6
7 | 0.2 nM | B7
8 | 0.3 nM | B8
9 | 0.06 nM | B9

From patent US20110105394A1 (Novo Nordisk, published 2011)
